{"source": "paper doi:10.1101/2023.01.08.523168", "about": "(bioRxiv, 2023)", "key": {"[1]": {"target": "T1, NanoLuc luciferase (NLuc)-ENL YEATS fusion protein (human, UniProt Q03111 1-148)", "T1 sequence (looked up)": "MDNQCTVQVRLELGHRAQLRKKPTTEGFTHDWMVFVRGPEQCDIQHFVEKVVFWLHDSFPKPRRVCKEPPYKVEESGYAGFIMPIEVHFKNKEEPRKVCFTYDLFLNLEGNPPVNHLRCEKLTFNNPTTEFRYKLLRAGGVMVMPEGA", "assay": "FRET or BRET"}, "AF9 YEATS domain [2]": {"target": "T2, AF9 YEATS domain (human, UniProt P42568 1-138)", "T2 sequence (looked up)": "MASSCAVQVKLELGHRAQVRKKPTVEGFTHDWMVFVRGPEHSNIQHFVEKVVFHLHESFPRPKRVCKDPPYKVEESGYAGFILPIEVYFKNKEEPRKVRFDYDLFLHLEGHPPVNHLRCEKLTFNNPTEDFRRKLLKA", "assay": "BLI"}, "[3]": {"target": "T1, NanoLuc luciferase (NLuc)-ENL YEATS …", "assay": "FRET or BRET", "remark": "listed apart in the source"}, "[4]": {"target": "T1, NanoLuc luciferase (NLuc)-ENL YEATS …", "assay": "FRET or BRET", "remark": "listed apart in the source"}, "AF9 YEATS domain [5]": {"target": "T2, AF9 YEATS domain", "assay": "AlphaScreen or HTRF"}, "[6]": {"target": "T3, 6x His-tagged ENL YEATS domain (human, UniProt Q03111 1-138)", "T3 sequence (looked up)": "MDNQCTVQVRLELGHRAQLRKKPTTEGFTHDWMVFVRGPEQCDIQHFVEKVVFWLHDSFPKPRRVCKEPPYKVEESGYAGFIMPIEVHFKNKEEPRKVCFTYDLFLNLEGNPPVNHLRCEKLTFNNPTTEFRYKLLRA", "assay": "BLI"}, "[7]": {"target": "T3, 6x His-tagged ENL YEATS domain", "assay": "AlphaScreen or HTRF"}}, "note": "Where two headings read alike, the source gives them in different places. No end group written: not given here. *: point of attachment. Oxazole(5-CO) = O=C(c1cnco1)*; Crotonyl(E) = C/C=C/C(=O)*; 2Furoyl = O=C(c1ccco1)*; Butyryl = CCCC(=O)*"}
{"binder": "Ac-VYCYK(2Furoyl)-NH2", "note": "[tENL-S1f]", "values": [{"measurement": "IC50", "setting": "[1]", "result": "4.2 ± 1.1", "unit": "µM"}, {"measurement": "fold selectivity for ENL YEATS over AF9", "setting": "AF9 YEATS domain [2]", "result": 12, "unit": "fold"}, {"measurement": "IC50", "setting": "[3]", "result": "4.1 ± 1.1", "unit": "µM"}, {"measurement": "IC50", "setting": "[4]", "result": "6.4 ± 1.6", "unit": "µM"}]}
{"binder": "YDVYCYK(2Furoyl)-NH2", "note": "[ENL-S1f]", "values": [{"measurement": "fold lower potency (IC50) toward AF9 YEATS than toward ENL YEATS", "setting": "AF9 YEATS domain [5]", "result": 7.7, "unit": "fold"}, {"measurement": "Kd", "setting": "[6]", "result": 10.3, "unit": "nM"}, {"measurement": "Kd", "setting": "AF9 YEATS domain [2]", "result": 144, "unit": "nM"}, {"measurement": "IC50", "setting": "[7]", "result": 22, "unit": "nM"}]}
{"binder": "WWIIEK(Butyryl)G-NH2", "note": "[ENL-S2]", "values": [{"measurement": "Kd", "setting": "[6]", "result": 881, "unit": "nM"}, {"measurement": "koff", "setting": "[6]", "result": 0.00554, "unit": "s⁻¹"}, {"measurement": "kon", "setting": "[6]", "result": 6290, "unit": "M⁻¹ s⁻¹"}, {"measurement": "IC50", "setting": "[7]", "result": 1220, "unit": "nM"}]}
{"binder": "YDVYCYK(Butyryl)-NH2", "note": "[ENL-S1]", "values": [{"measurement": "fold lower potency (IC50) toward AF9 YEATS than toward ENL YEATS", "setting": "AF9 YEATS domain [5]", "result": 4, "unit": "fold"}, {"measurement": "Kd", "setting": "[6]", "result": 36.3, "unit": "nM"}, {"measurement": "koff", "setting": "[6]", "result": 0.00226, "unit": "s⁻¹"}, {"measurement": "kon", "setting": "[6]", "result": 62300, "unit": "M⁻¹ s⁻¹"}, {"measurement": "Kd", "setting": "AF9 YEATS domain [2]", "result": 205, "unit": "nM"}, {"measurement": "IC50", "setting": "[7]", "result": 63, "unit": "nM"}]}
{"binder": "YDVYCYK(Crotonyl(E))-NH2", "note": "[ENL-S1c]", "values": [{"measurement": "fold lower potency (IC50) toward AF9 YEATS than toward ENL YEATS", "setting": "AF9 YEATS domain [5]", "result": 18, "unit": "fold"}, {"measurement": "Kd", "setting": "[6]", "result": 16.2, "unit": "nM"}, {"measurement": "Kd", "setting": "AF9 YEATS domain [2]", "result": 147, "unit": "nM"}, {"measurement": "IC50", "setting": "[7]", "result": 20, "unit": "nM"}]}
{"binder": "YDVYCYK(Oxazole(5-CO))-NH2", "note": "[ENL-S1o]", "values": [{"measurement": "fold lower potency (IC50) toward AF9 YEATS than toward ENL YEATS", "setting": "AF9 YEATS domain [5]", "result": 23, "unit": "fold"}, {"measurement": "Kd", "setting": "[6]", "result": 2, "unit": "nM"}, {"measurement": "Kd", "setting": "AF9 YEATS domain [2]", "result": 55.1, "unit": "nM"}, {"measurement": "IC50", "setting": "[7]", "result": 10, "unit": "nM"}]}
